This is an account of results in PMC4366279 (PLoS ONE, 2015).

Test [1] concerns the target T1, TbREL1 K441A (Trypanosoma brucei, UniProt P86926 45-469, K441A, [35S]-methionine labelled).
T1 construct: Site-directed mutagenesis of TbREL1-pET30a; source: in vitro translated (TNT reticulocyte lysate coupled transcription and translation system, Promega); not shown: His6, N-terminal, kept
T1 sequence: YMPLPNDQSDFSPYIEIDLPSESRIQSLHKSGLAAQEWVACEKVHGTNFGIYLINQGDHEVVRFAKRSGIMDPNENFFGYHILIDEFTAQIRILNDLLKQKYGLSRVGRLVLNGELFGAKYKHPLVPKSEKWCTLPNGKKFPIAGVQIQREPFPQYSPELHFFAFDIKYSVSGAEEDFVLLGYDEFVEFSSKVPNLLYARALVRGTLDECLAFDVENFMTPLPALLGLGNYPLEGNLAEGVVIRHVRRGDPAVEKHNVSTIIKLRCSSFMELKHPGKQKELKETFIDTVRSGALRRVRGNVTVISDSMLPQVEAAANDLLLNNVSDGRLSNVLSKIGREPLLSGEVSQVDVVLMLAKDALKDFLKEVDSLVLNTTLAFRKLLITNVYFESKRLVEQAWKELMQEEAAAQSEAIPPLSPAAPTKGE
As to the kind of experiment: pull-down; His6-TbREL1 TNT mixture mixed with an equal volume of untagged KREPA2 TNT mixture, captured on magnetic His-tag isolation beads (Dynabeads); binding buffer 50 mM NaPO4 pH 8.0, 300 mM NaCl, 0.01% Tween 20; 20-30 min at 4°C; three washes; [35S]-methionine-labelled proteins on 10% SDS-PAGE, PhosphorImager; KREPA2-only control for background. The note with it: partners not purified.

For test [2], the target named is T2, TbREL1 F206A (Trypanosoma brucei, UniProt P86926 45-469, F206A, [35S]-methionine labelled).
T2 construct: Site-directed mutagenesis of TbREL1-pET30a; source: in vitro translated (TNT reticulocyte lysate coupled transcription and translation system, Promega); not shown: His6, N-terminal, kept
T2 sequence: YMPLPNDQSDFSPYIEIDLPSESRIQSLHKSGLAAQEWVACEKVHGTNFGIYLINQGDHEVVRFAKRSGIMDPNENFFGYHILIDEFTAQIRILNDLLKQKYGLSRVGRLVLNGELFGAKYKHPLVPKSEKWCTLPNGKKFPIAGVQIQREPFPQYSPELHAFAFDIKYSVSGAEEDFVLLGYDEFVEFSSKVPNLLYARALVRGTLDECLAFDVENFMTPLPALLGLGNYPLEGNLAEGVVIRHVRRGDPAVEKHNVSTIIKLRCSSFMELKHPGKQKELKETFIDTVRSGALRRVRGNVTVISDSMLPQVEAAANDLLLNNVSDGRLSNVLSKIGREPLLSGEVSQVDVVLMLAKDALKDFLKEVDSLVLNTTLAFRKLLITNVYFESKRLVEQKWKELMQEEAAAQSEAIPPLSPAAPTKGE
Described as above. Particulars: partners not purified.

The target in test [3] is T3, TbREL1 E444A (Trypanosoma brucei, UniProt P86926 45-469, E444A, [35S]-methionine labelled).
T3 construct: Site-directed mutagenesis of TbREL1-pET30a; source: in vitro translated (TNT reticulocyte lysate coupled transcription and translation system, Promega); not shown: His6, N-terminal, kept
T3 sequence: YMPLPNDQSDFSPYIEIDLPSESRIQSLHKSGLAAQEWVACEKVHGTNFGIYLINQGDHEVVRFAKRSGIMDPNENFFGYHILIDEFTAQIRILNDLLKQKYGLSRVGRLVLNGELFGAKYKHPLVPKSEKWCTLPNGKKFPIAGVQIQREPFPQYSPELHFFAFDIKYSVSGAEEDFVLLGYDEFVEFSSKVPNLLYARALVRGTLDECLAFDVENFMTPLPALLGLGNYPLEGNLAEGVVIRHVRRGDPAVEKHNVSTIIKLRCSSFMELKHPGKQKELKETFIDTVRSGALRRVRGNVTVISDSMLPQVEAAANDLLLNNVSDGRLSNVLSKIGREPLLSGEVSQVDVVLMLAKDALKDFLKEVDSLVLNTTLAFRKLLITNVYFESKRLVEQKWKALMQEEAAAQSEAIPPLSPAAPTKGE
Described as above. Particulars: partners not purified.

Test [4] concerns the target T4, T. brucei RNA Editing Ligase 1 (TbREL1), full length wild type (Trypanosoma brucei, UniProt P86926 45-469, [35S]-methionine labelled).
T4 sequence: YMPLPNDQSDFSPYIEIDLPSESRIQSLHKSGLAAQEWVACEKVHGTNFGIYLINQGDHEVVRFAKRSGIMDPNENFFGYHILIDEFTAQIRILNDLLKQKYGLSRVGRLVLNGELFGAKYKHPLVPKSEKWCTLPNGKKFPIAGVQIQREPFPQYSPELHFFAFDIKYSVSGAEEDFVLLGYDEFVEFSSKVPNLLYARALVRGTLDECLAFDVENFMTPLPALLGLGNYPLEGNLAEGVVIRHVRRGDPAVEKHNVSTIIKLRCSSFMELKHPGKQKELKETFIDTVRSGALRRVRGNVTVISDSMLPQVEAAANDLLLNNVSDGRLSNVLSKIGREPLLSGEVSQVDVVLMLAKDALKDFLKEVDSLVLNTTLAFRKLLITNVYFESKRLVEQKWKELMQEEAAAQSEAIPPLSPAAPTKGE
As to the kind of experiment: cell-based or functional assay.

B1: KREPA2 (natural protein)
chain: MYRRFFRSAAVKHLGTTSAQCLMRATKYPCGAMCRNASSCHPQTLGYQQRFQSTTDKKFHCSVCKKPFRLEMAAKLHLQQAHGGDGSVEAGPGPGVEASSVNVVSTPVPSPISPVERTFVDEEERRPRRMRPTPKPLHQPDRDIPAAAMEEMLGVWDKIGLNRLEGNFVHSTMVMKVFAAPPDVSEIPLYEHVAPEGENPFDSLDHMTTGTVDATYVGHDAFAEVDLVDPFVAAPDQTLNPFRAGKVRNPFTRISPTQREVVKPLQPPQPKEEPLKAPVTPFGQLPMFGQTREPSASFAAAAVSVQAAANPNEVSSPFAAAVSSSPFVGQVASPFAPAQDVAGSPFEASPCAASSPFVTAGGQETSPFAAPSTPASFGQGSLFPPMGTGAPGFTAITETEQRQQELEHGCPTCGKKFSTFEGAAMHSKSKHGIVLESKKVKDRLNRKGVPDLPAYVPSPVDLSSTSPFGTRSAIGASWAETELIPHAQCVSNITIVGRVLDVSQASENVSHVTVFVEGERSGEEETLTLCCFGEVSQKIRGTLKRNATIFASGTLRLHPVYEASNNKYYVSPVVHVSMPTGTLAVIT
modifications: [35S]-methionine labelled
notes: KREPA2 of T. brucei, the KREPA2 open reading frame, expressed untagged (63 kDa); source: in vitro translated (TNT reticulocyte lysate coupled transcription and translation system, Promega)
Consider B1, for which the “relative pulldown (% of the KREPA2 pulled down by TbREL1 WT)” value in test [1], in test [2] and in test [3] was less than 50% in each case. Besides, the “adenylylation activity of TbREL1, enhancement in the presence of equimolar KREPA2” value in test [4] turned out to be 6.7 fold. Besides, in test [4], the “ligation activity of TbREL1 (pre-cleaved RNA ligation assay), enhancement in the presence of equimolar KREPA2” value was determined as 3.6 fold.
